Results published in patent US20210403578A1 (published 2021).

T1: Fz8-CRD (UniProt Q9H461 32-151, fluorescence-conjugated)
T1 chain: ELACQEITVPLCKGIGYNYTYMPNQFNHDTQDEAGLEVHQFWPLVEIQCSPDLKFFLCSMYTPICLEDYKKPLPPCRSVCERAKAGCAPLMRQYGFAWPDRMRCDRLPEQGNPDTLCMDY


What was measured:
Fz27C3 = assay: yeast surface titration
Fz27C49 = assay: yeast surface titration
Fz8-CRD = target: T1, Fz8-CRD; assay: SPR
Fzd1CRD = assay: SPR
Fzd5CRD = assay: SPR
Fzd7CRD = assay: SPR

Row | Kd (Fz27C3) [pM] | Kd (Fz27C49) [pM] | Kd (Fz8-CRD) [pM] | Kd (Fzd1CRD) [pM] | Kd (Fzd5CRD) [pM] | Kd (Fzd7CRD) [pM] | Binder
1 | ~122 | ~92 |  |  |  |  | Fzd8-CRD (receptor, fluorescence-conjugated) ELACQEITVPLCKGIGYNYTYMPNQFNHDTQDEAGLEVHQFWPLVEIQCSPDLKFFLCSMYTPICLEDYKKPLPPCRSVCERAKAGCAPLMRQYGFAWPDRMRCDRLPEQGNPDTLCMDY
2 |  |  | 1400 | 1100 | 750 | 820 | scFv(Onco)-DKK1c (other) MLLVNQSHQGFNKEHTSKMVSAIVLYVLLAAAAHSAFAADPIELTQPPSVSVAPGQTARISCSGDNIGSFYVHWYQQKPGQAPVLVIYDKSNRPSGIPERFSGSNSGNTATLTISGTQAEDEADYYCQSYANTLSLVFGGGTKLTVLGTTAASGSSGGSSSGAEVQLVESGGGLVQPGGSLRLSCAASGFTFSHYTLSWVRQAPGKGLEWVSVISGDGSYTYYADSVKGRFTISSDNSKNTLYLQMNSLRAEDTAVYYCARNFIKYVFANWGQGTLVTVSGSGSGKMYHTKGQEGSVCLRSSDCASGLCCARHFWSKICKPVLKEGQVCTKHRRKGSHGLEIFQRCYCGEGLSCRIQKDHHQASNSSRLHTCQRHHHHHHH
